# Target: T1, human TNF-alpha (hTNF-alpha) (human, UniProt P01375 77-233)
# T1 construct: also called biotinylated hTNF-; [125I]TNF-
# Test: SPR (BIAcore), TNFrED captured on BAF225 anti-TNFrED surface, TNF-alpha injected at 1-100 nM, global 1:1 fit
# Source text: Conditioned media from transient transfections of HEK293-EBNA cells were concentrated with Centricon 10s and the amount of TNFrED protein was quantitated with the R & D Systems ELISA for hTNF R-1. […] Conditioned medium (no TNFrED) and HBS were used as negative controls.
Binder,Kd [nM],koff [s⁻¹],kon [M⁻¹ s⁻¹]
"TNFrED H34P (receptor, Secreted from HEK293-EBNA cells, conditioned medium) DSVCPQGKYIHPQNNSICCTKCPKGTYLYNDCPGPGQDTDCRECESGSFTASENHLRHCLSCSKCRKEMGQVEISSCTVDRDTVCGCRKNQYRHYWSENLFQCFNCSLCLNGTVHLSCQEKQNTVCTCHAGFFLRENECVSCSNCKKSLECTKLCLPQIEN",0.5,0.0009,1.9e+06
"TNFrED S87P (receptor, Secreted from HEK293-EBNA cells, conditioned medium) DSVCPQGKYIHPQNNSICCTKCHKGTYLYNDCPGPGQDTDCRECESGSFTASENHLRHCLSCSKCRKEMGQVEISPCTVDRDTVCGCRKNQYRHYWSENLFQCFNCSLCLNGTVHLSCQEKQNTVCTCHAGFFLRENECVSCSNCKKSLECTKLCLPQIEN",0.6,0.0011,2e+06
"TNFrED H34P+S57I (receptor, Secreted from HEK293-EBNA cells, conditioned medium; also called H34P + S571) DSVCPQGKYIHPQNNSICCTKCPKGTYLYNDCPGPGQDTDCRECEIGSFTASENHLRHCLSCSKCRKEMGQVEISSCTVDRDTVCGCRKNQYRHYWSENLFQCFNCSLCLNGTVHLSCQEKQNTVCTCHAGFFLRENECVSCSNCKKSLECTKLCLPQIEN",0.6,0.0012,1.9e+06
"TNFrED S57I (receptor, Secreted from HEK293-EBNA cells, conditioned medium; also called S571) DSVCPQGKYIHPQNNSICCTKCHKGTYLYNDCPGPGQDTDCRECEIGSFTASENHLRHCLSCSKCRKEMGQVEISSCTVDRDTVCGCRKNQYRHYWSENLFQCFNCSLCLNGTVHLSCQEKQNTVCTCHAGFFLRENECVSCSNCKKSLECTKLCLPQIEN",0.5,0.0009,1.9e+06
"TNFrED H34P+S57I+S87P (receptor, Secreted from HEK293-EBNA cells, conditioned medium; also called H34P + S87P + S571) DSVCPQGKYIHPQNNSICCTKCPKGTYLYNDCPGPGQDTDCRECEIGSFTASENHLRHCLSCSKCRKEMGQVEISPCTVDRDTVCGCRKNQYRHYWSENLFQCFNCSLCLNGTVHLSCQEKQNTVCTCHAGFFLRENECVSCSNCKKSLECTKLCLPQIEN",0.6,0.001,1.8e+06
"TNFrED H34P+S87P (receptor, Secreted from HEK293-EBNA cells, conditioned medium) DSVCPQGKYIHPQNNSICCTKCPKGTYLYNDCPGPGQDTDCRECESGSFTASENHLRHCLSCSKCRKEMGQVEISPCTVDRDTVCGCRKNQYRHYWSENLFQCFNCSLCLNGTVHLSCQEKQNTVCTCHAGFFLRENECVSCSNCKKSLECTKLCLPQIEN",0.6,0.0012,1.9e+06

# — patent US20050074840A1 (published 2005)
